Measurements as given in the Human Domainome abundance scans (Beltran et al. 2025).

B1: RNA-binding E3 ubiquitin-protein ligase MEX3C, residues 325 to 391; numbered along this chain, Q5U5Q3 (parent)
chain: GQTTVQVRVPYRVVGLVVGPKGATIKRIQQQTHTYIVTPSRDKEPVFEVTGMPENVDRAREEIEMHI

Variants of: B1
Assay: abundance fitness (aPCA) (normalised: wild type 0, dead -1); higher = more abundant; growth selection in yeast, the domain comes from the species named
Conditions: Homo sapiens

Abundance fitness: each site, then its substitutions
V9: D -0.834 | K -0.776 | P -0.825 | M -0.641 | G -0.551 | A -0.657 | R -0.609 | I -0.54 | E -0.733 | F -0.933 | N -0.954 | W -0.767 | T -0.84 | L -0.873 | Q -0.993 | H -0.928
Y11: M 0.154 | P 0.128 | N -0.014 | R 0.262 | Q 0.233 | A 0.171 | F -0.514 | G -0.013 | L -0.029 | H 0.17 | S 0.236 | K 0.369 | W 0.136 | E 0.402
V17: I 0.013 | L -0.415 | D -0.702 | K -0.533 | T -0.524 | S -0.872 | H -0.149 | M -0.741 | W -0.635 | A -0.436 | Q -0.529 | R -0.751 | Y -0.505 | E -0.537 | F -0.711
L16: T -0.095 | M 0.316 | G -0.506 | F -0.139 | W -0.122 | N -0.312 | E -0.133 | P -0.615 | Q 0.034 | V -0.353 | C -0.213 | I -0.174 | R 0.075 | K -0.192 | D -0.058 | H -0.047 | Y -0.228 | A -0.052
V14: Q -0.881 | I 0.114 | E -0.51 | S -0.603 | Y -0.51 | G -0.746 | P -0.703 | F -0.315 | D -0.529 | M -0.185 | C -0.89 | K -0.636 | R -0.372 | T -0.524 | W -0.349
P10: M -0.885 | D -0.372 | I -0.634 | L -0.693 | V -0.707 | W -0.841 | A -0.708 | F -1.1 | Q -0.754 | S -0.793 | C -0.655 | K -0.563 | H -0.825 | T -0.611 | G -0.767
G15: R -0.212 | P -0.093 | Q -0.181 | D 0.018 | H -0.059 | A -0.067 | W -0.779 | V -0.986 | M -0.459 | S -0.128 | E -0.121 | C -0.59 | Y -0.691 | K -0.235 | N -0.234 | I -0.872
Q6: T -0.247 | W -0.513 | H -0.099 | E -0.218 | M -0.151 | Y 0.269 | V 0.071 | G -0.16 | C -0.028 | S -0.056 | R 0.159 | A -0.1 | L -0.022 | D -0.657 | P -0.3
V5: E -0.667 | G -0.387 | Q -0.294 | L -0.016 | W -0.83 | K -0.18 | H -0.822 | A -0.34 | R -0.336 | M -0.452 | D -1.05 | T -0.478 | F -0.363 | S -0.74 | I 0.2 | C -0.475
T3: V 0.008 | S -0.309 | P -0.787 | I 0.306 | W -1.1 | Q -0.258 | L -0.163 | Y -0.296 | N -0.672 | M -0.556 | H -0.252
P20: K -0.026 | H -0.123 | G -0.717 | Q -0.15 | I 0.051 | L -0.59 | W -0.625 | C -0.444 | E -0.139 | R -0.039 | S -0.408 | A -0.381 | M -0.763 | V -0.449 | Y -0.266 | T -0.472
